Results: the nanobody polyreactivity screen of Harvey et al. (2022)

Assay: yeast display, Sf9 membrane polyspecificity reagent, FACS + sequencing; frameworks hold sequencing errors
Summary of the method: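 Galactose-induced (36–48 hours) yeast carrying a synthetic nanobody display library were exposed to 10% biotinylated, detergent-solubilized Sf9 membrane reagent at 4 °C for 1 hour. FACS followed streptavidin microbead enrichment, using low and high (top ~1%) gates for expression (anti-HA) and reagent binding (streptavidin). Colony PCR, MiSeq 2 × 250 sequencing and CDR-length filtering followed. Labels for polyreactivity reflect the gate of origin.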

| Sequence | polyreactivity (PSR sort gate) |
| --- | --- |
| QVQLVESGGALVQAGGSLRLSCAASGSIFYTNAMGWYRQAPGKERELVAAIRWSGGRTYYADSVKGRFTISRDNAKNTVYLQMNSLKPEDTAVYYCNKVPRTPIPYKYGDWGQGTHVTVSS | high polyreactivity |
| QVQLVESGGALVQAGGSLRLSCAASGSLFERYAMGWYRQAPVKEREFVATITSGGGRTYYADSVKGRFTISRDNAKNTVYLQMNSLQPEDTAVYYCTAVYRARSYDYWGQGTQVTVSS | high polyreactivity |
| QVQLVESGGALVQAGGSLRLSCAASGSTFEDYAMRSSRQAPGKARELVAAISHIGGSTYYADSVKGRFTISRDNAKNTVYLQMNSLKPEDTAVYYCAKGVYSDLGYWAQGTQVTVSS | low polyreactivity |
| QVQLVESGGALVQAGGSLRLSCAASGSTFFINAMGWYRQAPGKERELVAAITSTDSTTYADSVKGRFTISRDNAKNTVYLQMNSLKPEDTAVYYCAKESIGQDPVSGAWARHEYDYWGQGTQVTVSS | low polyreactivity |
| QVQLVESGGALVQAGGSLRLSCAASGSTFRYYAMGWYRQAPGKERELVAAIRWSGDSTYYADSVKGRFTISRDNAKNTVYLQMNSLKPEDTAVYYCAADRQRSHRVGTKGHRVGYWGQGTQVSVSS | high polyreactivity |
| QVQLVESGGALVQAGGSLRLSCAASGSTFVQNAMGWYRQAPGKDRELVAAITIGGGSTYYADSVKGRFTISRDNAKNTVYLQMNSLKPEDTAVYYCAVEVGNPQLAYSYDYWGQGTQVTVSS | low polyreactivity |
| QVQLVESGGALVQAGGSLRLSCAASGSTFYWNTMGWYRQAPGKERELVASITRGGSTYYADSVKGRFTISRDNAKNTVYLQMNSLKPEDSAVYYCNVLAWSYGYRYYSWGQGTQVTVSS | high polyreactivity |
| QVQLVESGGALVQAGGSLRLSCAASGTTFHSYPMGWYRQAPGKERELVAAISNGGRTNYADSVNGRFTISRDNAKNTVYLQMNSLKPVDTAVYYCAVRLYRDSSYYYWGQGTQVTVSS | low polyreactivity |
| QVQLVESGGALVQARGSLRLSCSASGSTFFHNFKGWYRQEPGKERELVAAISGSGTRSYYADSVKGRFTISRDNAKNTVYLQMNSLKPEDTAVYYCNVVPLRVPSYLPKYYYWGQGTQVTVSS | high polyreactivity |
| QVQLVESGGALVQEGGSHRLSCAASRRIFVVYAMGWYRQAPGKERELVAAISKRRGSTYYADSVKGRFTISRYNAKNTVYLQMKSQKPEDTAVYYCAVEGVIWSFWPYEYWGQGTQVTVSS | high polyreactivity |
| QVQLVESGGALVQEGRSLRLSCAASGGTFADYPMGWYRQAPVKERELVAAITNGGSTFYADSVKGRFTSSRDNATNTVYLQMNSLKPDDTAVYYWSAVYLYAYSPYFSAVEMYYWGQGSQVTVSS | low polyreactivity |
| QVQLVESGGCIVQAGGSLRLSCAASGSIFTYNAMGWYRQAPGKERELVAAISASGGRTYYADSVKGRFTISRDNAKNTVYLQMNSLKPEDTAVYYCAARILVYGLRRFDYWGQGTQVNVSS | high polyreactivity |
| QVQLVESGGCIVQAGGSLRLSSPASGRNFTRYGKGWDRQAPRKERELVAAISKSTGNTYYADCVKGRFTISRDFAKNTVYLQMNSLKPEDTAVYYCAASKNKRPPYDYWGQGTQVNVSS | high polyreactivity |
| QVQLVESGGCLFQEGGSLRLSCSASGRIFNTYAMVWYRQAPGKERELVARISSGGTTYYADSVKGRFTISRDNAKNTVYLQMNSLKPEDTAVYFCNVRAVTPTRSRPFRYDYWGQGTQVTVSS | high polyreactivity |
| QVQLVESGGCLLQAGGSLSLSCAASGSTSPANTMGWYRQAPGKEREFVAGISRRGGRTYYADSVKGRFTISRDTAKNTVYLQMNSLKPEDTAVYYSATALIVRGPSRYEYWGHGTQVTVSS | high polyreactivity |
| QVQLVESGGCLVKAGGSLRLSCAASGSIFGHYAMGWYRQAPGKERELVASIDSGGRTNYADSVKGRFTISLDNAKNTVYLQMISLKPEDTGVYYCNTTSVKTRGYGYWGQGSQVTVSS | low polyreactivity |
| QVQLVESGGCLVKAGGSLRLSSAASGSTFYYYAMGWYRQAPGKERELVAAITVNGGSTYYADSVKGRFTISRDNANNTVYLQMNSLKPGVTAVYYCAADDTYWVYPYTYSTYEYWGQGNQVTVSS | low polyreactivity |
| QVQLVESGGCLVQAGASLRLSCAASGSISKSYAMGWYRQAPGKEREFVAAISWRGGSTYADSVKGRFTISRDNAKNTVYLQMNSLKPEDTAVYYCAATNYGTFWGGQSERYDYWGQGSQVTVSS | low polyreactivity |
| QVQLVESGGCLVQAGGSHRLSCAASGLTFPKYAMGWYRQAPGKERELVARISYSGASTYYADSVKGRFTISRDNAKNTVYLHMNSLKPEDTAVYYCYARIYRVFYVHFAPYYYWGQGTQVTVSS | high polyreactivity |
| QVQLVESGGCLVQAGGSLRLICAASGNTFYVYAMGWYRQAPGKERELVAAITWSGGSTNYADSVKGRYTISRDNAKNTVYLQMNSLKPEDSAVYYCKADYWTFSPYDYWGQGTQVTVSS | low polyreactivity |
| QVQLVESGGCLVQAGGSLRLICAASGSIFDYNAMGWYRQAPGKERELVADITLSDDSTYYADSVKGRFTISRDNAKNTVYLQKNSLKPEDTAVYYCAADIKYYWYYYYWAYAYDYWGQGTQVTVSS | high polyreactivity |
| QVQLVESGGCLVQAGGSLRLICAASVSIFYYYAMGWYRQAPGKERELVATIRSSDGSTYYADSVKGRFTISRDNAKNTVYLQMYSLKPEDTAVYYCAHGYFRYDYWGQGTQVSVSS | low polyreactivity |

| Sequence | polyreactivity (PSR sort gate) |
| --- | --- |
| QVQLVESGGCLVQAGGSLRLRCAASGPNFPGYTKGWYRHAPRKAREFVAAISYSGGSTYADSVKGRFTISRDNAKNTVYLQMNSLKPEDTSVYYCAVFLQHWLDMYYWGQGTQVNVSS | low polyreactivity |
| QVQLVESGGCLVQAGGSLRLSCAASGFIFRYNAMGWYRQAPGKERELVAAISWSGTTYYADSVKGRFTISRDNAKNTVYLQMNSLKPEDTAVFYCAAGRLFYGYRDFDYWGQGTQVTVSS | low polyreactivity |
| QVQLVESGGCLVQAGGSLRLSCAASGFTFSDNSMGWYRQAHGKERELVATISQSSGSTSYADSLKGRFTISRDNAKNTVYLQMNSLKPEDTAVYYCAKRRLFYWGLGTQVTVSS | low polyreactivity |
| QVQLVESGGCLVQAGGSLRLSCAASGFTFTTYAMGWYRQAPGKEREFVAALTKRGGRTYYADSVKGRFTISRDNAKITVYLQMNSLKPEDTAVYYCNKVVHSFPFPYRYDMDYWGQGTQVTVSS | high polyreactivity |
| QVQLVESGGCLVQAGGSLRLSCAASGFTFVRNAMGWYRQAPGKDRELVAAISGSGGRTYYADSVKGRFTISRDNAKNTVYLQMNSVKPEDTAVYYCNTASAYEYEYWGQGSQVTVSS | high polyreactivity |
| QVQLVESGGCLVQAGGSLRLSCAASGFTLTGNAMGWYRQAPGKERELVADISNSGGTTNYADSVKGRFTISRDNAKNTVYLQMNSLKPDDSAVYYCAADVSYRNIGLEYWGQGTQVTVSS | high polyreactivity |
| QVQLVESGGCLVQAGGSLRLSCAASGGIFGKYAMGWYRQAPGKESELVAAITWNGVSTYYADSVKGRFTISRDNAKNTVYLQMNSLKPEDTAVYYCAKASLPYRPDSTPDRRYDYWGQGTQVTVSS | high polyreactivity |
| QVQLVESGGCLVQAGGSLRLSCAASGGIFSYNAMGWYRQAPGKERELVAAISYSGGNTYYADSVKGRFTISRDNAKNTVYLQMNSLKPEDTAVYYCAATGYYNWYTSGYWGQGTQVTVSS | high polyreactivity |
| QVQLVESGGCLVQAGGSLRLSCAASGHIFTFYAMGWYRQAPGKERELVATIRWSGGSTYYADSVKGRFTISRDNAKNTVYLQMNSLKPEDTAVYYCAATYYPSSYVQRLDYWGQGTQVTVSS | low polyreactivity |
| QVQLVESGGCLVQAGGSLRLSCAASGIIFQQYAMGWYRQAPGKARELVAAITYSGDGTYYADSVKGRFTISRDNAKNTVYLQMNSLKPEDTAVYDCAAYPRDPYKEYDYWGQGTQVTVSS | low polyreactivity |
| QVQLVESGGCLVQAGGSLRLSCAASGIIFTYYAMGWSRQAPGKESELVARISSSGGRTYYADSVKGRVTISRDNGKNTVYLQMNSLNPEDTAVYYCAAAIVSYGRNDYWGQGTQVTVSS | high polyreactivity |
| QVQLVESGGCLVQAGGSLRLSCAASGITFRRYTMGWYRQAPGKERELVATISLSDGNTYYADSVKGRFTISRDNAKNSVYLQMNSLKPEDTAVYYCNADSTTQVYDYWGQGTQVTVSS | low polyreactivity |
| QVQLVESGGCLVQAGGSLRLSCAASGLIFRKYARGWSRQAPGKERELVAAISVSGGSTYYADSVKGRFTISRDNAKNTVYLQMNSLKPEDTAVYYCAATDFGRRGGSFYYWGQGTQVTVSS | high polyreactivity |
| QVQLVESGGCLVQAGGSLRLSCAASGLNFSKNVKGWYIQAPGKERELVAAISQRGGSTYYADSVKGRFTISRDYAKNTVYLQMNSLKPEDTAVYYCAADTTVSHEDYWGQGTQVTVSS | low polyreactivity |
| QVQLVESGGCLVQAGGSLRLSCAASGLTIFVNAMGWYRQAPGKERELVATISGGGSTYYADSVKGRFTISRDNAKNTVYLQMNSLKPEDTAVYYCNGGGYGLRGDYWGQGTQVTVSS | low polyreactivity |
| QVQLVESGGCLVQAGGSLRLSCAASGRIFVTYAMGWYRQAPGNERELVAAITSRGGRTYYADSVKGRFTISRDYAKNTVYLQMNSLKPEDTAVYYCAASPGPGARYYYWCQGTQVTVSS | high polyreactivity |
| QVQLVESGGCLVQAGGSLRLSCAASGRIIDFYTLGWYRQAPGKERELVAGINGSGASTYYADSVKGRFTISRDNAKNTVYLQMNSLKPEDTAVYYCAKDPGYYYDYDYWGQGTQVTVSS | low polyreactivity |
| QVQLVESGGCLVQAGGSLRLSCAASGRISGFNAMGWYRQAPGKERELVAANSYRGGSTYADSVKGRFTISRVNAKNTVYLQMNSLKPEDTAVYYCAAQSYWTFHTYYYWGQGTQVTVSS | low polyreactivity |
| QVQLVESGGCLVQAGGSLRLSCAASGRNIAYNAMGWSRQAPGKERELVASISSGGSTFYADSVKGRFTISRDNAKNTVYLQMNSLKPEDTAVYYCAKGGYWGQGTQVSVSS | high polyreactivity |
| QVQLVESGGCLVQAGGSLRLSCAASGRTFRRYAMGWYRQAPGKERELVASITWRGGRTYYADSVKGRFTISRDNAKNTVYLQMNSLKPEDTAVYYCAAEDYQLPGYRRTHVEKMDYWGQGTQVTVSS | low polyreactivity |
| QVQLVESGGCLVQAGGSLRLSCAASGRTFSPNAMGWYRQAPGKERELVAAISWISGGRTYYADSVKGRFTISRDNAKNTVYLQMNSLKPEDTAVYYCAAEYYYTYGYWGQGTQVTVSS | high polyreactivity |
